Source: paper doi:10.1101/2020.12.03.410779

Biological target: human Retromer complex (Vps35-Vps29-Vps26A) (human) (UniProt Q96QK1)
Experiment: ITC

Kd: 370 nM
Substance: TBC domain of human TBC1D5 (from UniProt Q92609 1-795) (domain or fragment)
